{"source": "paper PMC3756911", "about": "(Nature, 2013)", "binders": {"B1": {"name": "hnRNPA1-D262N (full-length) (natural protein)", "chain": "MSKSESPKEPEQLRKLFIGGLSFETTDESLRSHFEQWGTLTDCVVMRDPNTKRSRGFGFVTYATVEEVDAAMNARPHKVDGRVVEPKRAVSREDSQRPGAHLTVKKIFVGGIKEDTEEHHLRDYFEQYGKIEVIEIMTDRGSGKKRGFAFVTFDDHDSVDKIVIQKYHTVNGHNCEVRKALSKQEMASASSSQRGRSGSGNFGGGRGGGFGGNDNFGRGGNFSGRGGFGGSRGGGGYGGSGDGYNGFGNDGSNFGGGGSYNNFGNYNNQSSNFGPMKGGNFGGRSSGPYGGGGQYFAKPRNQGGYGGSSSSSSYGSGRRF"}}, "key": {"[1]": {"target": "hnRNPA2 D290V (full-length) (human, UniProt P22626-2 1-341, D290V)", "test": "cross-seeded fibrillization, sedimentation analysis"}, "[2]": {"target": "B1", "test": "cross-seeded fibrillization, sedimentation analysis"}, "[3]": {"target": "hnRNPA1-D262V (full-length) (human, UniProt P09651-2 1-320, D262V)", "test": "cross-seeded fibrillization, sedimentation analysis"}, "[4]": {"target": "the molecule itself", "test": "seeded fibrillization, sedimentation analysis"}, "[5]": {"target": "the molecule itself", "test": "thioflavin-T fluorescence + electron microscopy"}}, "data": [{"binder": "hnRNPA2 wild-type (full-length) (natural protein) MEREKEQFRKLFIGGLSFETTEESLRNYYEQWGKLTDCVVMRDPASKRSRGFGFVTFSSMAEVDAAMAARPHSIDGRVVEPKRAVAREESGKPGAHVTVKKLFVGGIKEDTEEHHLRDYFEEYGKIDTIEIITDRQSGKKRGFGFVTFDDHDPVDKIVLQKYHTINGHNAEVRKALSRQEMQEVQSSRSGRGGNFGFGDSRGGGGNFGPGPGSNFRGGSDGYGSGRGFGDGYNGYGGGPGGGNFGGSPGYGGGRGGYGGGGPGYGNQGGGYGGGYDNYGGGNYGSGNYNDFGNYNQQPSNYGPMKSGNFGGSRNMGGPYGGGNYGPGGSGGSGGYGGRSRY", "values": [{"measurement": "binding result", "setting": "[1]", "result": "binds"}]}, {"binder": "hnRNPA1 wild-type (full-length) (natural protein) MSKSESPKEPEQLRKLFIGGLSFETTDESLRSHFEQWGTLTDCVVMRDPNTKRSRGFGFVTYATVEEVDAAMNARPHKVDGRVVEPKRAVSREDSQRPGAHLTVKKIFVGGIKEDTEEHHLRDYFEQYGKIEVIEIMTDRGSGKKRGFAFVTFDDHDSVDKIVIQKYHTVNGHNCEVRKALSKQEMASASSSQRGRSGSGNFGGGRGGGFGGNDNFGRGGNFSGRGGFGGSRGGGGYGGSGDGYNGFGNDGSNFGGGGSYNDFGNYNNQSSNFGPMKGGNFGGRSSGPYGGGGQYFAKPRNQGGYGGSSSSSSYGSGRRF", "values": [{"measurement": "binding result", "setting": "[2]", "result": "binds"}, {"measurement": "binding result", "setting": "[3]", "result": "binds"}]}, {"binder": "B1", "values": [{"measurement": "binding result", "setting": "[4]", "result": "binds"}]}, {"binder": "NYNVFG", "note": "[A2 D290V hexapeptide (NYNVFG)]", "values": [{"measurement": "binding result", "setting": "[5]", "result": "binds"}]}]}
